Where two headings read alike, the source gives them in different places.
Columns and labels:
[1] = target: Spike Delta (SARS-CoV-2)
[2] = target: T1, Spike Delta (SARS-CoV-2); assay: SPR, Delta spike as solid phase [panel C]
T1 construct: also called Delta spike; delta spike protein

| Binder | Kd [1] | Kd [2] |
| --- | --- | --- |
| 1-Arm (designed binder) LCB1 mini-binder coupled to a DNA handle that is hybridised to one arm of a 3-helix-bundle DNA nanostructure: DKEWILQKIYEIMRLLDELGHAEASMRVSDLIYEFMKKGDERLLEEAERLLEEVER | 140 pM |  |
| Tri-pdbody (designed binder, also called 3-Arm; 3arm) LCB1 mini-binder coupled to a DNA handle that is hybridised to an arm of a 3-helix-bundle DNA nanostructure: DKEWILQKIYEIMRLLDELGHAEASMRVSDLIYEFMKKGDERLLEEAERLLEEVER | 100 pM | 216 pM |
| 2-Arm (designed binder) LCB1 mini-binder coupled to a DNA handle that is hybridised to an arm of a 3-helix-bundle DNA nanostructure: DKEWILQKIYEIMRLLDELGHAEASMRVSDLIYEFMKKGDERLLEEAERLLEEVER | 140 pM |  |
